The results in this text go back to PMC3265476, “Functional Characterization of MODY2 Mutations Highlights the Importance of the Fine-Tuning of Glucokinase and Its Role in Glucose Sensing” (PLoS ONE, 2012).

Where a chain is given by its changes, count along the chain named.

This assay relates to human beta-cell glucokinase. Kind of assay: Kinetic analysis of recombinant GST-GK fusion proteins (NADP+-coupled assay with glucose-6-phosphate dehydrogenase). The assay is classed as biochemical. The conditions noted are these: for S0.5 for glucose: means ± SEM; for overall activity, % of the wild-type protein: reflected in the relative activity index; for nH (Hill coefficient): unit less.

Experimental: The expression and purification of fusion proteins from E. coli was performed as described previously [22]. Fusion proteins were stored at a concentration of about 1 mg/ml at −80°C in 30% glycerol, 50 mM glucose, 10 mM glutathione, 5 mM DTT, 200 mM KCl and 50 mM Tris/HCl pH = 8.0. Protein concentrations were determined using the Bio-Rad Protein Assay (Bio-Rad Laboratories, GmbH), with bovine serum albumin as standard.
Glucokinase activity was measured spectrophotometrically on a spectrophotometer Uviconxl (Secoman), using an NADP^+-coupled assay with glucose-6-phosphate dehydrogenase, as described previously [22]. The final reaction mixture contained 100 mM Tris pH 7.4, 150 mM KCl, 1 mM MgCl2, 1.4 mM ß-mercaptoethanol, 0.1% BSA, 5 mM ATP-MgCl2, 1 mM NADP^+, and 1 U/ml glucose-6-phosphate dehydrogenase. Determination of kinetic parameters and thermal stability tests were performed as in [20].
One unit of GK is defined as the amount of enzyme that phosphorylates 1 µmol of glucose per min at 30°C.

B1: GST-GK (p.Ile130Thr): recombinant GST-glucokinase fusion protein with MODY2 mutation p.Ile130Thr (protein, UniProt P35557 1-465, looked up, variant I130T)
Hexokinase-4: MLDDRARMEAAKKEKVEQILAEFQLQEEDLKKVMRRMQKEMDRGLRLETHEEASVKMLPTYVRSTPEGSEVGDFLSLDLGGTNFRVMLVKVGEGEEGQWSVKTKHQMYSIPEDAMTGTAEMLFDYISECTSDFLDKHQMKHKKLPLGFTFSFPVRHEDIDKGILLNWTKGFKASGAEGNNVVGLLRDAIKRRGDFEMDVVAMVNDTVATMISCYYEDHQCEVGMIVGTGCNACYMEEMQNVELVEGDEGRMCVNTEWGAFGDSGELDEFLLEYDRLVDESSANPGQQLYEKLIGGKYMGELVRLVLLRLVDENLLFHGEASEQLRTRGAFETRFVSQVESDTGDRKQIYNILSTLGLRPSTTDCDIVRRACESVSTRAAHMCSAGLAGVINRMRESRSEDVMRITVGVDGSVYKLHPSFKERFHASVRRLTPSCEITFIESEEGSGRGAALVSAVACKKACMLGQ
modifications: N-terminal GST fusion
For B1, the S0.5 for glucose came to 8.59 ± 0.45 mM; the “overall activity, % of the wild-type protein” value is “lower than 20%”; the “nH (Hill coefficient)” value was 1.01±0.02.

B2: GST-GK (p.Asp205His): recombinant GST-glucokinase fusion protein with MODY2 mutation p.Asp205His (protein, UniProt P35557 1-465, looked up, variant D205H)
Hexokinase-4: B1 Hexokinase-4 with T130I, D205H
modifications: N-terminal GST fusion
On to B2, for which the S0.5 for glucose entry is recorded as “No activity at all” and the “nH (Hill coefficient)” value is given as “No activity at all”.

B3: GST-GK (p.Gly223Ser): recombinant GST-glucokinase fusion protein with MODY2 mutation p.Gly223Ser (protein, UniProt P35557 1-465, looked up, variant G223S)
Hexokinase-4: B1 Hexokinase-4 with T130I, G223S
modifications: N-terminal GST fusion
On to B3, for which the S0.5 for glucose came out at 44.0 ± 3.81 mM; the “overall activity, % of the wild-type protein” value is given as below 10%; the “nH (Hill coefficient)” value is listed as 1.13±0.01.
